According to publication PMC10918641 (Biomaterials, 2023):

Tested on: C57BL/6J mice
Settings: mouse, in vivo

B1: OVA-PEG: OVA conjugated to PEG via urethane linkage (conjugate, UniProt P01012 2-386, looked up)
Ovalbumin: GSIGAASMEFCFDVFKELKVHHANENIFYCPIAIMSALAMVYLGAKDSTRTQINKVVRFDKLPGFGDSIEAQCGTSVNVHSSLRDILNQITKPNDVYSFSLASRLYAEERYPILPEYLQCVKELYRGGLEPINFQTAADQARELINSWVESQTNGIIRNVLQPSSVDSQTAMVLVNAIVFKGLWEKAFKDEDTQAMPFRVTEQESKPVQMMYQIGLFRVASMASEKMKILELPFASGTMSMLVLLPDEVSGLEQLESIINFEKLTEWTSSNVMEERKIKVYLPRMKMEEKYNLTSVLMAMGITDVFSSSANLSGISSAESLKISQAVHAAHAEINEAGREVVGSAEAGVDAASVSEEFRADHPFLFCIKHIATNAVLFFGRCVSP
modifications: PEG 10K conjugate
  PEG-specific IgM titer relative to Ex-PEG: ~ 60 fold
  anti-OVA IgG titer: lower titers of anti-OVA IgG than unmodified OVA
  magnification of anti-OVA and anti-PEG responses by CFA/IFA emulsions: ~ 2 fold
